Laboratory results as given in US20040171105A1 (published 2004).

T1: Omi WT (wild-type mature Omi/HtrA2, C-terminal hexa-His tagged, recombinant from E. coli) (Homo sapiens (humans), UniProt O43464 134-458)
T1 construct: Any N-terminal Met from Nde I cloning is not discussed for the bacterial protein; also called wild-type Omi; PRSS25
T1 sequence: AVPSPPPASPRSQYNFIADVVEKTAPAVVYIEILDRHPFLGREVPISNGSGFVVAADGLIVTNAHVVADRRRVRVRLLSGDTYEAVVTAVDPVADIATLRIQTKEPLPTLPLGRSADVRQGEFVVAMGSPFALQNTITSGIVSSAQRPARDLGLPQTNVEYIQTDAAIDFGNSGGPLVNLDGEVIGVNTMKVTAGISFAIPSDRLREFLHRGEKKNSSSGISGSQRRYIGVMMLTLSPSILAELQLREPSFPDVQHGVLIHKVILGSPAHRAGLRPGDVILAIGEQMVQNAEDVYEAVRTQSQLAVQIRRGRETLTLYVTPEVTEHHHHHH


Legend:
[1] = molecular target: T1, Omi WT (wild-type mature Omi/HtrA2, …); assay: immunoprecipitation assay (data not shown)
[2] = molecular target: T2, GST fusion form of full-length human cIAP1 (human, UniProt Q13490 1-618); assay: cell-based or functional assay
[3] = molecular target: T2, GST fusion form of full-length human …; assay: GST pulldown on Glutathione Sepharose beads, Western blot (anti-GST, anti-Penta-His)
Procedure: To examine whether the differential in catalytic efficiency between Omi WT and OmiΔ8 was due to different binding affinities to IAPs, a GST-based pulldown assay was used to monitor the IAP binding affinities of Omi WT and OmiΔ8. Full-length cIAP1 (50 nM) was incubated with 100 nM of Omi WT and Omi mutants for 20 minutes at 4° C. in 50 μl of PBST. The samples were then incubated with 20 μl of Glutathione Sepharose beads (Amersham Biosciences, Piscataway, N.J.) for 30 minutes at 4° C. The beads were precipitated by centrifugation and washed briefly with 1.4 ml×3 of PBST. The proteins bound to the beads and left in the supernatant were separately mixed with SDS sample loading buffer and resolved by SDS-PAGE, then transferred to a nitrocellulose filter. The upper part of the filter was probed with an antibody against GST and the lower part with an antibody against Penta-His.

T2 sequence (Q13490 whole entry, the tested form may be a part): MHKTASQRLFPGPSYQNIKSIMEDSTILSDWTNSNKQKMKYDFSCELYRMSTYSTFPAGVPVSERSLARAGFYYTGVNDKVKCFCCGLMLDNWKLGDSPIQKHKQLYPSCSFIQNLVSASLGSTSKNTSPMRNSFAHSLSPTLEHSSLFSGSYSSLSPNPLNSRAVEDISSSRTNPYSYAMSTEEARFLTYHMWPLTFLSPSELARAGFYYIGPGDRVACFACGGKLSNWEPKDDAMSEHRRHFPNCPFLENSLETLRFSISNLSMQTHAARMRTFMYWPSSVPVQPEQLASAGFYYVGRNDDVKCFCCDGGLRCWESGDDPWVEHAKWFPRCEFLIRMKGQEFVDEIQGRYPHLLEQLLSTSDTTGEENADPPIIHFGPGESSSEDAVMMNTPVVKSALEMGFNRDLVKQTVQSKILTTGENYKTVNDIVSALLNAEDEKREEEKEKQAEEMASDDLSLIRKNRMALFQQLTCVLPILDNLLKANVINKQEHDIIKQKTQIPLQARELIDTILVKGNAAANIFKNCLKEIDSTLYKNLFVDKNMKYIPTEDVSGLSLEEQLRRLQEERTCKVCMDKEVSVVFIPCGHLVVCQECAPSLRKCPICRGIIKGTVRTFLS

| Binder | binding result [1] | relief of cIAP1 inhibition of caspase activity in HeLa extracts [2] | binding result [3] |
| --- | --- | --- | --- |
| Smac (purified recombinant) (other, UniProt Q9NR28 56-239, looked up, The construct is not described; also called Smac/DIABLO) AVPIAQKSEPHSLSSEALMRRAVSLVTDSTSTFLSQTTYALIEAITEYTKAVYTLTSLYRQYTSLLGKMNSEEEDEVWQVIIGARAEMTSKHQEYLKLETTWMTAVGLSEMAAEAAYQTGADQASITARNHIQLVKLQVEEVHQLSRKAETKLAEAQIEELRQKTQEEGEERAESEQEAYLRED | no binding | 200 nM | – |
| OmiΔ8 (Omi without the AVPS tetrapeptide, C-terminal hexa-His tagged) (enzyme, The name Δ8 may mean that 8 residues were deleted in the tested construct; also called Omi?8; OmiΔAVPS) PPPASPRSQYNFIADVVEKTAPAVVYIEILDRHPFLGREVPISNGSGFVVAADGLIVTNAHVVADRRRVRVRLLSGDTYEAVVTAVDPVADIATLRIQTKEPLPTLPLGRSADVRQGEFVVAMGSPFALQNTITSGIVSSAQRPARDLGLPQTNVEYIQTDAAIDFGNSGGPLVNLDGEVIGVNTMKVTAGISFAIPSDRLREFLHRGEKKNSSSGISGSQRRYIGVMMLTLSPSILAELQLREPSFPDVQHGVLIHKVILGSPAHRAGLRPGDVILAIGEQMVQNAEDVYEAVRTQSQLAVQIRRGRETLTLYVTPEVTEHHHHHH | – | – | no binding (tested: 100 nM Omi mutant with 50 nM cIAP1) |
